According to publication PMC8070380 (2021):

Key:
[1] = target: T1, A3Bctd-DM (L230K/F308K), residues 187-378 (human, UniProt Q9UH17 187-378, L230K | F308K); experiment: SPR; association 300 s, dissociation 750 s
[2] = target: T1, A3Bctd-DM (L230K/F308K), residues …; experiment: SPR; association 120 s, dissociation 300 s

T1 sequence (Q9UH17 187-378 L230K/F308K): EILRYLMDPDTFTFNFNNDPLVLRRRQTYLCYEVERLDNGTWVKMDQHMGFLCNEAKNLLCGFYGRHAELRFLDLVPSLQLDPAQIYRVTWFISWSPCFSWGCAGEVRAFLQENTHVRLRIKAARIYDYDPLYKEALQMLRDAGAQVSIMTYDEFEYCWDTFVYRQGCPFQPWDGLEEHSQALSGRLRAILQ

koff [1]: 0.000331 s⁻¹
koff [2]: 0.000779 s⁻¹
B1: scFv 5G7 (heavy chain Fv followed by light chain Fv, 16-residue His8 linker) (scFv, V domains shown)
VH: EVQLLESGGDLVKPGGSLKLSCAASGFTFSSYGMSWVRQTPDKRLEWVATISSGGSYTYYPDSVKGRFTISRDNAKNTLYLQMSSLKSEDTAMYYCARGGEGYYFDYWGQGTTLTVSS
VL: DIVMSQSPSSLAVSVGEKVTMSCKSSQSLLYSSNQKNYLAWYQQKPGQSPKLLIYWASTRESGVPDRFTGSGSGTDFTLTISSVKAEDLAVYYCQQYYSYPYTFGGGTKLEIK
